Data on two substances can be found in article PMC12266039.

The target of assay [1] is human FcRn receptor (neonatal Fc receptor) (human) (UniProt P55899). The experiment in a line: SPR. A general note: In SPR one partner is held on a chip, and binding of the other changes the refractive index at the surface.
The target in assay [2] is BG505 DS-SOSIP.664 (gp140 trimer) (HIV (BG505)) (UniProt Q2N0S6). The experiment in a line: SPR.

Sequence of griffithsin (GRFT) (P84801 whole entry): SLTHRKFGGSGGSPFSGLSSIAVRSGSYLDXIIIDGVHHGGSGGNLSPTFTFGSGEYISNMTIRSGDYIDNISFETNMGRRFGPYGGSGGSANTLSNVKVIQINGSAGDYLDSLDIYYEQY

The Kd is a measure of binding affinity in units of concentration. Read a low Kd as tighter binding. Regarding “VRC01 (standard anti-HIV broadly neutralizing antibody)”, the Kd in assay [1] was 78.2 nM.

As usually defined, the koff is a measure of how fast the partners let go of each other. High values mean a short-lived complex, low ones a long-lived complex. Broadly, the kon is the second-order rate constant of association. Read a low kon as slower complex formation. In assay [2], “griffithsin (GRFT) (from UniProt P84801 1-121) (natural protein)” had a koff of 0.0136 s⁻¹ and a kon of 1.42e+07 M⁻¹ s⁻¹.
